Reference: article PMC9411544, “Catalytic innovation underlies independent recruitment of polyketide synthases in cocaine and hyoscyamine biosynthesis” (Nature Communications, 2022)

System: CC(C)(COP(=O)(O)OP(=O)(O)OC[C@H]1O[C@@H](n2cnc3c(N)ncnc32)[C@H](O)[C@@H]1OP(=O)(O)O)[C@@H](O)C(=O)NCCC(=O)NCCSC(=O)CC(=O)O
Experiment: purified protein
Settings: sole substrate, 100 mM potassium phosphate, pH 8.0, 30 °C, 20-1000 μM malonyl-CoA

| Substance | Km (1 ng/μL enzyme, 5 min) [µM] | kcat (1 ng/μL enzyme, 5 min) [s⁻¹] | Km (2 ng/μL enzyme, 8 min) [µM] | kcat (2 ng/μL enzyme, 8 min) [s⁻¹] |
| --- | --- | --- | --- | --- |
| AaPYKS1 (Anisodus acutangulus) | 70.38 | 2.24 | – | – |
| EnPKS1 (Erythroxylum novogranatense) | 112.90 | 1.89 | – | – |
| EnPKS2 (Erythroxylum novogranatense) | – | – | 50.54 | 0.45 |
